# From patent US9028824 (dated 2015)
# Read-outs that look alike come from different tables or passages of the source.
# T1: human OX40R extracellular domain fusion protein (CD134-muIg) (human, UniProt P43489)
# T1 chain: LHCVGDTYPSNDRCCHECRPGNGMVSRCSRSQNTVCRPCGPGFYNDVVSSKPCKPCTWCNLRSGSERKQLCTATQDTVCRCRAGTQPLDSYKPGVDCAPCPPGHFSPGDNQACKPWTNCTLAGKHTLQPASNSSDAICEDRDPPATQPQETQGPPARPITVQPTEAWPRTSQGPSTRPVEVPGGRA
# T2: human OX40R on cells (human, UniProt P43489)
# T2 chain: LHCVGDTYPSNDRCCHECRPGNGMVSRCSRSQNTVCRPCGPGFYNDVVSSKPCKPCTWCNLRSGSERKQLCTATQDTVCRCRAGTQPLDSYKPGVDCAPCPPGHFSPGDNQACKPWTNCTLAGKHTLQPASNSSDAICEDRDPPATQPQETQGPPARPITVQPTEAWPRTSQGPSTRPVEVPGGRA
# T3: murine OX40R ECD fusion (mouse, UniProt P47741)
# T3 chain: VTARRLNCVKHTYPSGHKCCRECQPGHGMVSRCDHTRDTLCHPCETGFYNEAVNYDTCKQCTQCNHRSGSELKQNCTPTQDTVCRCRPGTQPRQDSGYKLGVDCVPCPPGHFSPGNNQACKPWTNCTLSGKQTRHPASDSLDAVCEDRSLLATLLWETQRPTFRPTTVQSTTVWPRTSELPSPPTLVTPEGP
# T4: CD271 (NGF receptor) ECD-IgG1 fusion (human, UniProt P08138)
# T4 chain: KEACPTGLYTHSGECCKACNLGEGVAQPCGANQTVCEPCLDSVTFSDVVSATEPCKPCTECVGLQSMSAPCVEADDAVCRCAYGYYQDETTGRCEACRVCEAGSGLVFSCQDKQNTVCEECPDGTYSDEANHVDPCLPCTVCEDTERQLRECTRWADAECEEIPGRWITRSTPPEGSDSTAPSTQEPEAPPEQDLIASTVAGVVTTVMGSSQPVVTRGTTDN
# Experiments:
# [1] = molecular target: T5, CD137 (4-1BB) ECD-IgG1 fusion (human, UniProt Q07011); assay: other, up to 700 nM
# T5 sequence (Q07011 24-186): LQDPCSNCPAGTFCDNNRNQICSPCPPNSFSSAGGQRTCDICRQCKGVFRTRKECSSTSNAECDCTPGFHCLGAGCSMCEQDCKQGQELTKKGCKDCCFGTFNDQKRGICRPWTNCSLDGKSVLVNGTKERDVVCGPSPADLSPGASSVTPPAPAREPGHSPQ
# [2] = molecular target: T1, human OX40R extracellular domain fusion …; assay: ELISA
# [3] = molecular target: T2, human OX40R on cells; assay: FACS, CD3/CD28 stimulated T cells
# [4] = molecular target: T3, murine OX40R ECD fusion; assay: ELISA
# [5] = molecular target: T2, human OX40R on cells; assay: FACS, human T cells
# [6] = molecular target: T2, human OX40R on cells; assay: FACS, OX40R+ 300-19 cells
# [7] = molecular target: T4, CD271 (NGF receptor) ECD-IgG1 fusion; assay: other, up to 700 nM
# [8] = molecular target: T1, human OX40R extracellular domain fusion …; assay: SPR
# [9] = molecular target: T6, CD40 ECD-IgG1 fusion (human, UniProt P25942); assay: other, up to 700 nM
# T6 sequence (P25942 21-193): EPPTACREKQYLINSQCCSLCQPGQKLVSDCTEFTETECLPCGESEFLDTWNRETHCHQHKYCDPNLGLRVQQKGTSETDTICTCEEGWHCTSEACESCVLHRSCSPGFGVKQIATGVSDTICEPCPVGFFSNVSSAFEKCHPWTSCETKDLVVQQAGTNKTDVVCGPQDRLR
# [10] = molecular target: T4, CD271 (NGF receptor) ECD-IgG1 fusion; assay: other, up to 700 nM
# [11] = molecular target: T5, CD137 (4-1BB) ECD-IgG1 fusion; assay: other, up to 700 nM; remark: listed apart in the source
# [12] = molecular target: T6, CD40 ECD-IgG1 fusion; assay: other, up to 700 nM; remark: listed apart in the source
Binder,binding result [1],EC50 [2],EC50 [3],binding result [4],EC50 [5],EC50 [6],binding result [7],Kd [8],binding result [9],binding result [10],binding result [11],binding result [12]
"11D4 (antibody, V domains shown) VH: EVQLVESGGGLVQPGGSLRLSCAASGFTFSSYSMNWVRQAPGKGLEWVSYISSSSSTIDYADSVKGRFTISRDNAKNSLYLQMNSLRDEDTAVYYCARESGWYLFDYWGQGTLVTVSS VL: DIQMTQSPSSLSASVGDRVTITCRASQGISSWLAWYQQKPEKAPKSLIYAASSLQSGVPSRFSGSGSGTDFTLTISSLQPEDFATYYCQQYNSYPPTFGGGTKVEIK",no binding,3.5 nM,4 nM,no binding,0.566 µg/mL,1.7 nM,no binding,0.48 nM,no binding,–,–,–
"18D8 (antibody, V domains shown) VH: EVQLVESGGGLVQPGRSLRLSCAASGFTFDDYAMHWVRQAPGKGLEWVSGISWNSGSIGYADSVKGRFTISRDNAKNSLYLQMNSLRAEDTALYYCAKDQSTADYYFYYGMDVWGQGTTVTVSS VL: EIVVTQSPATLSLSPGERATLSCRASQSVSSYLAWYQQKPGQAPRLLIYDASNRATGIPARFSGSGSGTDFTLTISSLEPEDFAVYYCQQRSNWPTFGQGTKVEIK",–,–,–,–,–,–,–,–,–,no binding,no binding,no binding
